Data taken from patent publication US20230338555A1 (IONIS PHARMACEUTICALS, published 2023).
Where two headings read alike, the source gives them in different places. Ends that are not written are not given here.

T1: human sortilin stably expressed on HEK 293 cells (HEK-SORT1 cells) (human, UniProt Q99523 78-831)
T1 sequence (looked up): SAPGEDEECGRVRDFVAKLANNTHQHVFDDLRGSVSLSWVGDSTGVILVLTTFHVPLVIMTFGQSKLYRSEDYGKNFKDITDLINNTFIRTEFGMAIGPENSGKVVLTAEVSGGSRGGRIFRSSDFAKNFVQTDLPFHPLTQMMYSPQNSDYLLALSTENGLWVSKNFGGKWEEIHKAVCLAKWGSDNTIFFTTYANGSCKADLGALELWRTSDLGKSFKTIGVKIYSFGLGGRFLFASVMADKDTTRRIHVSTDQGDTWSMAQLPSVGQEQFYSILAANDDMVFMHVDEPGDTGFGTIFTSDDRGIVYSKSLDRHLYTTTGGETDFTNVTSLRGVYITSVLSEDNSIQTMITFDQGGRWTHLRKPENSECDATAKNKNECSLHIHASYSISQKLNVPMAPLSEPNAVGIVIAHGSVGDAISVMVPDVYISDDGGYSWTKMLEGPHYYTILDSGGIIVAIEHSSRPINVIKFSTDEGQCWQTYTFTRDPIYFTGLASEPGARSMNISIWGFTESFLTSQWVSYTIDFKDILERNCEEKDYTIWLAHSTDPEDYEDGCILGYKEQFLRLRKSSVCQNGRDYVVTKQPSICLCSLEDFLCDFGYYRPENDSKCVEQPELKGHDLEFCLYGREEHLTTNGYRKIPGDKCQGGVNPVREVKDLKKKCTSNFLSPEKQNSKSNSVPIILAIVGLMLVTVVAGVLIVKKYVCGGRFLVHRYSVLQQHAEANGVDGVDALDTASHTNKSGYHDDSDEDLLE

B1: Compound No. 18-AJ9998, Morpholino oligomer-neurotensin conjugate 11 (Cy3 labeled) (peptide)
peptide: XLYENKPRRPYIL
modifications: X at position 1 is 2-azido-acetyl lysine joined via BCN to a Cy3-labeled phosphorodiamidate morpholino oligomer
B2: Compound No. 1162756, extended neurotensin (eNT, XPPPAGSSPGLYENKPRRPYIL) conjugated to 20-mer MOE oligonucleotide with 3'-Cy3 (peptide)
peptide: KPPPAGSSPGLYENKPRRPYIL
modifications: not fully specified (residue 1); also: X side chain clicked via BCN (triazole) and 6-aminohexanol linker to 5' end of oligonucleotide CCAGGCTGGTTATGACTCAG (MOE, 3'-Cy3)
B3: Compound No. 1162754, KNT neurotensin peptide conjugated to 20-mer uniform 2'-MOE phosphodiester oligonucleotide with 3'-Cy3 (peptide)
peptide: XLYENKPRRPYIL
modifications: not fully specified; position 1 printed dK (X = 2-azido-acetyl lysine); side chain joined via triazolo-BCN carbamate / 6-aminohexanol linker to the 5' end of oligonucleotide … (SEQ ID NO 2, uniform MOE, phosphodiester, 3'-Cy3)

Tests used:
Assay in all cases: cell-based or functional assay
[1] = target: T1, human sortilin stably expressed on HEK …
[2] = target: T1, human sortilin stably expressed on HEK …; remark: listed apart in the source
[3] = target: T1, human sortilin stably expressed on HEK …; remark: listed apart in the source
[4] = target: T1, human sortilin stably expressed on HEK …; remark: listed apart in the source
[5] = target: T1, human sortilin stably expressed on HEK …; remark: listed apart in the source
[6] = target: T1, human sortilin stably expressed on HEK …; remark: listed apart in the source
[7] = target: T1, human sortilin stably expressed on HEK …; remark: listed apart in the source
[8] = target: T1, human sortilin stably expressed on HEK …; remark: listed apart in the source

Binder	Mean Fluorescence Intensity (MFI), uptake 37C-4C, at 12 nM [1]	Mean Fluorescence Intensity (MFI), uptake 37C-4C, at 111 nM [1]	Mean Fluorescence Intensity (MFI), uptake 37C-4C, at 333 nM [1]	Mean Fluorescence Intensity (MFI), uptake 37C-4C, at 1000 nM [1]	Mean Fluorescence Intensity (MFI), uptake 37C-4C, at 3000 nM [1]	Mean Fluorescence Intensity (MFI), uptake 37C-4C, at 12 nM [2]	Mean Fluorescence Intensity (MFI), uptake 37C-4C, at 37 nM [2]	Mean Fluorescence Intensity (MFI), uptake 37C-4C, at 111 nM [2]	Mean Fluorescence Intensity (MFI), uptake 37C-4C, at 333 nM [2]	Mean Fluorescence Intensity (MFI), uptake 37C-4C, at 1000 nM [2]	Mean Fluorescence Intensity (MFI), uptake 37C-4C, at 7 nM [5]	Mean Fluorescence Intensity (MFI), uptake 37C-4C, at 22 nM [5]	Mean Fluorescence Intensity (MFI), uptake 37C-4C, at 76 nM [5]	Mean Fluorescence Intensity (MFI), uptake 37C-4C, at 260 nM [5]	Mean Fluorescence Intensity (MFI), uptake 37C-4C, at 882 nM [5]	Mean Fluorescence Intensity (MFI), uptake 37C-4C, at 3000 nM [5]	other results
B1	70 MFI	86 MFI	138 MFI	267 MFI	631 MFI												Mean Fluorescence Intensity (MFI), uptake 37C-4C, at 37 nM [1]: 75 MFI
B2						67 MFI	119 MFI	246 MFI	812 MFI	1390 MFI	53 MFI	102 MFI	259 MFI	817 MFI	2100 MFI	4220 MFI	Mean Fluorescence Intensity (MFI), uptake 37C-4C, at 7 nM [3]: 51 MFI; Mean Fluorescence Intensity (MFI), uptake 37C-4C, at 22 nM [3]: 122 MFI; Mean Fluorescence Intensity (MFI), uptake 37C-4C, at 76 nM [3]: 309 MFI; Mean Fluorescence Intensity (MFI), uptake 37C-4C, at 260 nM [3]: 937 MFI; Mean Fluorescence Intensity (MFI), uptake 37C-4C, at 882 nM [3]: 2070 MFI; Mean Fluorescence Intensity (MFI), uptake 37C-4C, at 3000 nM [3]: 3380 MFI; Mean Fluorescence Intensity (MFI), uptake 37C-4C, at 12 nM [4]: 61 MFI; Mean Fluorescence Intensity (MFI), uptake 37C-4C, at 37 nM [4]: 124 MFI; Mean Fluorescence Intensity (MFI), uptake 37C-4C, at 111 nM [4]: 364 MFI; Mean Fluorescence Intensity (MFI), uptake 37C-4C, at 333 nM [4]: 839 MFI; Mean Fluorescence Intensity (MFI), uptake 37C-4C, at 1000 nM [4]: 1560 MFI
B3	67 MFI	85 MFI	123 MFI	192 MFI	427 MFI	43 MFI	54 MFI	71 MFI	171 MFI	293 MFI	43 MFI	50 MFI	73 MFI	145 MFI	381 MFI	1300 MFI	Mean Fluorescence Intensity (MFI), uptake 37C-4C, at 12 nM [6]: 54 MFI; Mean Fluorescence Intensity (MFI), uptake 37C-4C, at 37 nM [6]: 66 MFI; Mean Fluorescence Intensity (MFI), uptake 37C-4C, at 111 nM [6]: 101 MFI; Mean Fluorescence Intensity (MFI), uptake 37C-4C, at 333 nM [6]: 205 MFI; Mean Fluorescence Intensity (MFI), uptake 37C-4C, at 1000 nM [6]: 370 MFI; Mean Fluorescence Intensity (MFI), uptake 37C-4C, at 12 nM [7]: 38 MFI; Mean Fluorescence Intensity (MFI), uptake 37C-4C, at 37 nM [7]: 47 MFI; Mean Fluorescence Intensity (MFI), uptake 37C-4C, at 333 nM [7]: 143 MFI; Mean Fluorescence Intensity (MFI), uptake 37C-4C, at 1000 nM [7]: 371 MFI; Mean Fluorescence Intensity (MFI), uptake 37C-4C, at 12 nM [8]: 43 MFI; Mean Fluorescence Intensity (MFI), uptake 37C-4C, at 37 nM [8]: 54 MFI; Mean Fluorescence Intensity (MFI), uptake 37C-4C, at 111 nM [8]: 71 MFI; Mean Fluorescence Intensity (MFI), uptake 37C-4C, at 333 nM [8]: 171 MFI; Mean Fluorescence Intensity (MFI), uptake 37C-4C, at 1000 nM [8]: 293 MFI
